{
  "source": "patent US5077204A",
  "about": "“Yeast endopeptidase for basic amino-acid site cleavage, preparation and use” (Chiron Corporation, priority 1988, dated 1991)",
  "key": {"[1]": {"molecular_target": "T1, KEX2 endopeptidase (kex2[YEp24-pJ2B] membranes) (Saccharomyces cerevisiae, UniProt P13134)", "T1 construct": "not only includes the KEX2 gene, but also the necessary transcriptional and translational regulatory signals for expression in yeast; expressed in transfected cells; host or cells: S. cerevisiae XBH16-15A (MATalpha kex2-1) carrying YEp24-pJ2B", "T1 sequence (P13134 114-814)": "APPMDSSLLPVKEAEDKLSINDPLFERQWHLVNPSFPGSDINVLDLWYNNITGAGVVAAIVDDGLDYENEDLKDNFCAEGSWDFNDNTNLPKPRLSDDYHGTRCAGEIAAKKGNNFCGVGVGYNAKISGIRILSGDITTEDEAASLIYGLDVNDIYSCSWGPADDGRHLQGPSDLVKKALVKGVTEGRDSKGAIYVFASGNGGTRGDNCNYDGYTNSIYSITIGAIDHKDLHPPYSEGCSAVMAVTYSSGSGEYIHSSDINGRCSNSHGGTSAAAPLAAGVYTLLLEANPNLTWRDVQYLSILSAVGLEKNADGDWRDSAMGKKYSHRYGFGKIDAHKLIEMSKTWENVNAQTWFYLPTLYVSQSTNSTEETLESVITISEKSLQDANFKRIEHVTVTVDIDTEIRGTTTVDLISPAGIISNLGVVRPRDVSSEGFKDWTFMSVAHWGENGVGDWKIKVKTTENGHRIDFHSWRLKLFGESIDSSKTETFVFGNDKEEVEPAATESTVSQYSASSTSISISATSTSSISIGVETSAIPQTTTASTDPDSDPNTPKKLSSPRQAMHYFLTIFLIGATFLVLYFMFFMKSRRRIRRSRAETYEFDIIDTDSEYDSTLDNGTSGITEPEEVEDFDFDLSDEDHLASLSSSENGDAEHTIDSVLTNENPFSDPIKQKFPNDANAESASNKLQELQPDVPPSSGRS", "experiment": "Endopeptidase activity in membranes from kex2 cells carrying multicopy plasmid pJ2B (over-produced specific endopeptidase)", "format": "biochemical, S. cerevisiae", "description": "Permeabilization of whole yeast cells with the non-ionic detergent Brij 58, preparation of crude membrane fractions, and measurement of protein concentration were conducted by the methods described previously (Julius et al., 1983, supra), incorporated herein by reference. To measure peptidase activity, samples of permeabilized cells or membrane material were added to a reaction mixture containing 0.1-0.5 mM fluorogenic peptide substrate (added from a 20 mM stock dissolved in DMSO) and 200 mM HEPES-Tris (pH 7.0), in a final volume of 0.4 ml. Following incubation for 30 min at 37° C., whole cells were removed by centrifugation in a microfuge (Eppendorf) and membrane material was removed by Ba(OH)2 -ZnSO4 precipitation. The amount of fluorescence formed in the supernatant solution was determined in a fluorescence spectrophotometer (Perkin-Elmer, Model MPF-44B), set either at an excitation wavelength of 335 nm and an emission wavelength of 410 nm (for measurement of β-naphthylamine) or at an excitation wavelength of 380 nm and an emission wavelength of 460 nm (for measurement of 7-amino-4-methyl-coumarin, AMC). To determine the number of moles of substrate hydrolyzed, the fluorescence yield of samples was compared to a standard curve prepared with known concentrations of authentic AMC dissolved in the same buffer.\nCells of strain XBH1615A that had been transformed with the plasmids\nindicated, or that contained pJ2B in integrated form, were grown in SCUra\nand membranes were prepared as described in the Experimental.\nEndopeptidase activity was assayed as described in the Experimental. All\nsubstrates tested were present at 0.1 mM.\nEndopeptidase activity was assayed using Boc--GlnArgArg--MCA as the\nsubstrate, as outlined in the Experimental. All inhibitors were added fro\na 0.1 M stock dissolved in dimethyl sulfoxide."}, "[2]": {"tested_on": "human proinsulin (alpha-factor leader-proinsulin fusion)", "experiment": "Processing of proinsulin in yeast transformed with KEX2 containing vectors", "format": "cell-based, yeast strains AB109 and AB103.1", "settings": "yeast transformed with pYBCA5-KEX2 versus pYBCA5; cleavage between alpha-factor leader and proinsulin, B/C and C/A junctions", "text": "Plasmids containing proinsulin and KEX2 genes (pYBCA5-KEX2 or pYBCA5-KEX4) or control plasmids with only proinsulin sequences (pYBCA5) or no insert (pCl/1) were used to transform kex2^- mutant yeast strain AB109 (Matα, kex2-1, ade2-1, his^-, leu2-3,112, trpl^-289, ura3-25 ura3-52, (KIL-k), cir° ) or KEX2^+ yeast strain AB103.1 (matα, pep4-3, leu2-3, leu2-112, ura3-52, his4-580, cir° ) following the procedure of Hinnen et al., Proc. Natl. Acad. Sci. USA (1978) 75:1929-1933. Transformants were grown in a low sulfate medium (LSM) containing 0.1 mM (NH4)2 SO4 until mid-exponential phase (OD660 nm 1-3), collected by centrifugation and resuspended in LSM containing 0.25 mCi of carrier free [ ^35 S]SO4^2- at an OD660 =2. After 10 min incubation, a 50-fold excess of (NH4)2 SO4 was added and cells were further incubated for 15-30 min. After centrifugation, proteins present in the cell free extract were precipitated with 12% trichloroacetic acid, 0.5 mg/ml deoxycholate. The precipitate was resuspended, reduced and alkylated and submitted to protein acrylamide gel electrophoresis (Laemmli, Nature (1970) 227:680). Gels were fixed, fluorographed, dried and exposed to Kodak XAR-5 film at -70° C."}},
  "data": [
    {"molecule": "KEX2 endopeptidase: yeast endopeptidase, product of the KEX2 gene, cleaving on the carboxyl side of a pair of basic amino acids (protein, UniProt P13134 114-814, looked up) Kexin: APPMDSSLLPVKEAEDKLSINDPLFERQWHLVNPSFPGSDINVLDLWYNNITGAGVVAAIVDDGLDYENEDLKDNFCAEGSWDFNDNTNLPKPRLSDDYHGTRCAGEIAAKKGNNFCGVGVGYNAKISGIRILSGDITTEDEAASLIYGLDVNDIYSCSWGPADDGRHLQGPSDLVKKALVKGVTEGRDSKGAIYVFASGNGGTRGDNCNYDGYTNSIYSITIGAIDHKDLHPPYSEGCSAVMAVTYSSGSGEYIHSSDINGRCSNSHGGTSAAAPLAAGVYTLLLEANPNLTWRDVQYLSILSAVGLEKNADGDWRDSAMGKKYSHRYGFGKIDAHKLIEMSKTWENVNAQTWFYLPTLYVSQSTNSTEETLESVITISEKSLQDANFKRIEHVTVTVDIDTEIRGTTTVDLISPAGIISNLGVVRPRDVSSEGFKDWTFMSVAHWGENGVGDWKIKVKTTENGHRIDFHSWRLKLFGESIDSSKTETFVFGNDKEEVEPAATESTVSQYSASSTSISISATSTSSISIGVETSAIPQTTTASTDPDSDPNTPKKLSSPRQAMHYFLTIFLIGATFLVLYFMFFMKSRRRIRRSRAETYEFDIIDTDSEYDSTLDNGTSGITEPEEVEDFDFDLSDEDHLASLSSSENGDAEHTIDSVLTNENPFSDPIKQKFPNDANAESASNKLQELQPDVPPSSGRS", "values": [
      {"measurement": "pH optimum", "setting": "[1]", "result": "7.0-7.5"},
      {"measurement": "Activity at pH 5.0", "setting": "[1]; pH 5.0", "result": "little activity detected"},
      {"measurement": "Activity at pH 8.5", "setting": "[1]; pH 8.5", "result": "about half-maximal activity"},
      {"measurement": "Processing of proinsulin (autoradiography of secreted insulin-related bands)", "setting": "[2]", "result": "able to process proinsulin at specific cleavage sites"}
    ]}
  ]
}
